Assay results as given in the RNAGym collection of RNA variant scans (doi:10.1073/pnas.2313332121).
This sample holds only a part of the variants without activity.

B1: TPR 5TU (parent)
chain: GGAUCUUCUCGAUCUAACAAAAAAGACAAAUCUGCCACAAAGCUUGAGAGCAUCUUCGGAUGCAGAGGCGGCAGCCUUCGGUGGCGCGAUAGCGCCAACGUUCUCAACUAUGACACGCAAAACGCGUGCUCCGUUGAAUGGAGUUUAUCAUG

Variants of: B1
Test: polymerase ribozyme fitness, log enrichment relative to wild type (log ratio); higher = more active; in vitro selection for triplet polymerase activity
Outline: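 Each subunit of a heterodimeric triplet polymerase ribozyme was mutagenized into a library by PCR, transcribed, and subjected to one round of in vitro selection, run in triplicate. Libraries were annealed with a biotinylated primer, the partner subunit and triplets, incubated frozen at −7 °C, and extended constructs were gel-excised, captured on streptavidin beads and recovered by RT-PCR. Input and output libraries were sequenced on Illumina, keeping genotypes with ≥10 input reads and ≥1 read per output. Fitness is log base 2 of genotype enrichment divided by wild-type enrichment, from inverse-variance-weighted replicate averages.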

Variant | polymerase ribozyme fitness (log ratio)
GGAUCUUCUCGAUCUAACAAAAAAGACAAAUCUGCCACAAAGCUUGAGAGCAUCUUCGGAUGCAGAGGCGGCAGCCUUCGGUGGCGCUAUAGCGCCAACGUUCUCAACUAUGACAUGCAAAACGCGUGCUCCGUUGCAUGGAGUUUAUGAUG [G88U C116U A137C C149G] | ≤ -4.2
GGAUCUUCUCGAUCUAACAAAAAAGACAAAUCUGCCACAAAGCUUGAGAGCAUCUUCGGAUGCAGAGGCGGCAGCCUUCGGUGGCGCCAUAGCGCCAACGUUCUCAACUAUGACACGCAAAACGCGUGCUCCGUUGAAUGGACUUUAUCAUG [G88C G143C] | -3.92
GGAUCUUCUCGAUCUAACAAAAAAGACAAAUCUGCCACAAAGCUUGAGAGCAUCUUCGGAUGCAGAGGCGGCAGCCUUCGGUGGCGCCAUAGCGUCAACGUUCUCAACUAUGACACGCAAAACGCGUGCUCCGUUGAAUGGAGUUUAUCAUG [G88C C95U] | ≤ -4.2
GGAUCUUCUCGAUCUAACAAAAAAGACAAAUCUGCCACAAAGCUUGAGAGCAUCUUCGGAUGCAGAGGCGGCAGCCUUCGGUGGCGCUAUAGCGCUAACGUUCUCAACUAUGACACGCAAAACCCGUGCUCCGUUUAAUGGAGUUUAUCAUG [G88U C96U G124C G136U] | ≤ -4.2
GGAUCUUCUCGAUCUAACAAAAAAGACAAAUCUGCCACAAAGCUUGAGAGCAUCUUCGGAUGCAGAGGCGGCAGCCUUCGGUGGCGCCAUAGCGCCAACGUUCUCAACUAUGACACGCAAAACGCGUGCUCCGUUGUAUGGAAUUUAUCAUG [G88C A137U G143A] | ≤ -4.2
GGAUCUUCUCGAUCUAACAAAAAAGACAAAUCUGCCACAAAGCUUGAGAGCAUCUUCGGAUGCAGAGGCGGCAGCCUUCGGUGGCGCGCUAGCGGCAACGUUCUCAACUAUGACACGCAAAACGCGUGCUCCGUUGAAUGGAGUUUAUCAUG [A89C C95G] | -3.24
GGAUCUUCUCGAUCUAACAAAAAAGACAAAUCUGCCACAAAGCUUGAGAGCAUCUUCGGAUGCAGAGGCGGCAGCCUUCGGUGGCGCGCUAGCGUCAACGUUCUCAACUAUGACACGCAAAACGCGUGCUCCGUUGAAUGGAGUUUAUCAUG [A89C C95U] | -1.49
GGAUCUUCUCGAUCUAACAAAAAAGACAAAUCUGCCACAAAGCUUGAGAGCAUCUUCGGAUGCAGAGGCGGCAGCCUUCGGUGGCGCGCUAGCGCCAACGUUCUCAACUAUGACACGCAAAACGCGUGCUCCGUUGAAUGGGGUUUAUCAUG [A89C A142G] | -1.52
GGAUCUUCUCGAUCUAACAAAAAAGACAAAUCUGCCACAAAGCUUGAGAGCAUCUUCGGAUGCAGAGGCGGCAGCCUUCGGUGGCGCUAUAGCGCCAACGUUCUCAACUAUGACACGCAAAACGCGUGCUCCGUUGAAUGGAGUUUAUUAUG [G88U C149U] | ≤ -4.2
GGAUCUUCUCGAUCUAACAAAAAAGACAAAUCUGCCACAAAGCUUGAGAGCAUCUUCGGAUGCAGAGGCGGCAGCCUUCGGUGGCGCUAUAGCGCCAACGUUCUCAAAUAUGACACGCAAAACGCGUGCUCCGUUGAAUGGAGUUUAUCAUG [G88U C108A] | ≤ -4.2
GGAUCUUCUCGAUCUAACAAAAAAGACAAAUCUGCCACAAAGCUUGAGAGCAUCUUCGGAUGCAGAGGCGGCAGCCUUCGGUGGCGCCAUAGCGCCUACGUUAUCAACUAUGACACGCAAAACGCGUCCUCCGCUGAAUGGAGUUCAUCAUG [G88C A97U C103A G128C U134C U146C] | ≤ -4.2
GGAUCUUCUCGAUCUAACAAAAAAGACAAAUCUGCCACAAAGCUUGAGAGCAUCUUCGGAUGCAGAGGCGGCAGCCUUCGGUGGCGCGCUAGCGCCAACGUUCUCAACUAUGACACGCAAAACGCGUGCUCCGUUGAAUGGAGUUUAUCAUG [A89C] | -0.82
GGAUCUUCUCGAUCUAACAAAAAAGACAAAUCUGCCACAAAGCUUGAGAGCAUCUUCGGAUGCAGAGGCGGCAGCCUUCGGUGGCGCUACAGCGCCAACGUUCUCAACUAUGACACGCAAAACGCGUGCUCCCUUGCAUGGAGUUUAUCAUG [G88U U90C G133C A137C] | ≤ -4.2
GGAUCUUCUCGAUCUAACAAAAAAGACAAAUCUGCCACAAAGCUUGAGAGCAUCUUCGGAUGCAGAGGCGGCAGCCUUCGGUGGCGCCAUAGCGCCAACGUUCUCAACUAUGACAUGCAAAACGCGUGCUCCGUUGAAUGGAGUUUAUCAUG [G88C C116U] | -3.99
GGAUCUUCUCGAUCUAACAAAAAAGACAAAUCUGCCACAAAGCUUGAGAGCAUCUUCGGAUGCAGAGGCGGCAGCCUUCGGUGGCGCCCUAGCGUCAACGUUCUCAACUAUGACACGCAAAACGCGUGCUCCGUUGAAUGGAGUUUAUCAUG [G88C A89C C95U] | ≤ -4.2
GGAUCUUCUCGAUCUAACAAAAAAGACAAAUCUGCCACAAAGCUUGAGAGCAUCUUCGGAUGCAGAGGCGGCAGCCUUCGGUGGCGCCAUAGCGCCAACGUUCUCAACUAUGAUACGCAAAACGCGUGCUCCGUUGAAUGUAGUUUAUCAUG [G88C C114U G141U] | ≤ -4.2
GGAUCUUCUCGAUCUAACAAAAAAGACAAAUCUGCCACAAAGCUUGAGAGCAUCUUCGGAUGCAGAGGCGGCAGCCUUCGGUGGCGCUAUAGCGCCAACGUUCUCGACUAUGACACGCAAAACGCGUGCUCCGUUGAAUGGAGUUUAUCAUG [G88U A106G] | -3.91
GGAUCUUCUCGAUCUAACAAAAAAGACAAAUCUGCCACAAAGCUUGAGAGCAUCUUCGGAUGCAGAGGCGGCAGCCUUCGGUGGCGCGCUAGCGCCAACGUUCUCAACUAUGACACGCAAAACGCGUGCUCCGUUGAAUGGAGUUUAUCGUG [A89C A150G] | -0.921
GGAUCUUCUCGAUCUAACAAAAAAGACAAAUCUGCCACAAAGCUUGAGAGCAUCUUCGGAUGCAGAGGCGGCAGCCUUCGGUGGCGCCAUAGCGCCAACGUUCUCAACUAUGACUCGCAAAACGCGUGCUCCGUUGAAUGGAGUUUAUCAUG [G88C A115U] | ≤ -4.2

Variant | polymerase ribozyme fitness (log ratio)
GGAUCUUCUCGAUCUAACAAAAAAGACAAAUCUGCCACAAAGCUUGAGAGCAUCUUCGGAUGCAGAGGCGGCAGCCUUCGGUGGCGCGCUAGCGCCUACGGUCUCAACUGUGACACGCAAAACGCGUGCUCCGGUGAAUGAAGUUUAUCAUG [A89C A97U U101G A110G U134G G141A] | ≤ -4.2
GGAUCUUCUCGAUCUAACAAAAAAGACAAAUCUGCCACAAAGCUUGAGAGCAUCUUCGGAUGCAGAGGCGGCAGCCUUCGGUGGCGCGCUAGGGCUAACGUUCUCAACUAUGACACGCAAAACGCGUGCUCCGUUGAAUGGAGUUUAGCAUG [A89C C93G C96U U148G] | ≤ -4.2
GGAUCUUCUCGAUCUAACAAAAAAGACAAAUCUGCCACAAAGCUUGAGAGCAUCUUCGGAUGCAGAGGCGGCAGCCUUCGGUGGCGCUAUAGCGCCAACGUUCUCAACUAUGACACGCAAAACGCGUGCACCGUUGAAUGGAGUUUCUCAUG [G88U U130A A147C] | ≤ -4.2
GGAUCUUCUCGAUCUAACAAAAAAGACAAAUCUGCCACAAAGCUUGAGAGCAUCUUCGGAUGCAGAGGCGGCAGCCUUCGGUGGCGCCAUAGCGCCCACGUUCUCAACUGUGACACGCAAAACGCGUGCUCCGUUGAAUGGAGUUUAUCAUG [G88C A97C A110G] | ≤ -4.2
GGAUCUUCUCGAUCUAACAAAAAAGACAAAUCUGCCACAAAGCUUGAGAGCAUCUUCGGAUGCAGAGGCGGCAGCCUUCGGUGGCGCCAUAGCGCCAACGCUCUCAACUAUGCCACGCAAAACGCGUGCUCCGUUGAAGGGAGUUUAUCAUG [G88C U101C A113C U139G] | ≤ -4.2
GGAUCUUCUCGAUCUAACAAAAAAGACAAAUCUGCCACAAAGCUUGAGAGCAUCUUCGGAUGCAGAGGCGGCAGCCUUCGGUGGCGCCAUAGCGCCAACGUUCUCAAGUAUGACACGCAAAACGCGUGCUCCGUUGAAUGGAGUUUAUCAUG [G88C C108G] | ≤ -4.2
GGAUCUUCUCGAUCUAACAAAAAAGACAAAUCUGCCACAAAGCUUGAGAGCAUCUUCGGAUGCAGAGGCGGCAGCCUUCGGUGGCGCAAUAGCGCCAACGUUCUCAACUAUGACACGCAAAACGCGUGCUCCGUUGAAUGGAGGUUAUCAUG [G88A U144G] | -3.35
GGAUCUUCUCGAUCUAACAAAAAAGACAAAUCUGCCACAAAGCUUGAGAGCAUCUUCGGAUGCAGAGGCGGCAGCCUUCGGUGGCGCUAUAGCGCCAAAGUUCUCAACUAUGACACGCAAAACGCGUGCUCCGUUGAAUGGAGUUUAUCAUG [G88U C99A] | -4.1
GGAUCUUCUCGAUCUAACAAAAAAGACAAAUCUGCCACAAAGCUUGAGAGCAUCUUCGGAUGCAGAGGCGGCAGCCUUCGGUGGCGCUAUAGCGCCAAUGUUCUCAACUAUGACACGCAAAACGCGUGCUCCGUUGAAUGGAGUUUAUCAUG [G88U C99U] | -4.12
GGAUCUUCUCGAUCUAACAAAAAAGACAAAUCUGCCACAAAGCUUGAGAGCAUCUUCGGAUGCAGAGGCGGCAGCCUUCGGUGGCGCGCUAGCGCAAACGUUCUCAACUAUGACGCGCAAAACGCGUGCUCCGUUGAAUGGAGUUUAUCAUG [A89C C96A A115G] | -2.74
GGAUCUUCUCGAUCUAACAAAAAAGACAAAUCUGCCACAAAGCUUGAGAGCAUCUUCGGAUGCAGAGGCGGCAGCCUUCGGUGGCGCCAUAGCGCCAACCUUCUCGACUAUGACACGCAAAACGCGUGCUCCGUUGAAUGGAGUUCAUCAUG [G88C G100C A106G U146C] | ≤ -4.2
GGAUCUUCUCGAUCUAACAAAAAAGACAAAUCUGCCACAAAGCUUGAGAGCAUCUUCGGAUGCAGAGGCGGCAGCCUUCGGUGGCGCUAUAGCGCCAACGUUCUCAACUAUGACACUCAAAACGCGUGCUCCGUUGAAUGGCGUUUAUCAUG [G88U G117U A142C] | ≤ -4.2
GGAUCUUCUCGAUCUAACAAAAAAGACAAAUCUGCCACAAAGCUUGAGAGCAUCUUCGGAUGCAGAGGCGGCAGCCUUCGGUGGCGCCAUAGCGCCAACGUUCUCAACUAUGACUCUCAAAACGCGUGCUGCGUGGAAUGGAGUUUAUCAUG [G88C A115U G117U C131G U135G] | ≤ -4.2
GGAUCUUCUCGAUCUAACAAAAAAGACAAAUCUGCCACAAAGCUUGAGAGCAUCUUCGGAUGCAGAGGCGGCAGCCUUCGGUGGCGCGCUAGUGCCAACGUUCUCAACUAUGACACGCAAAACGCGUGCUCCGUUCAAUGGAGUUUAUCAUG [A89C C93U G136C] | ≤ -4.2
GGAUCUUCUCGAUCUAACAAAAAAGACAAAUCUGCCACAAAGCUUGAGAGCAUCUUCGGAUGCAGAGGCGGCAGCCUUCGGUGGCGCUAUGGCGCCAACGUUCUCAACUAUGACACGCAAAACGCGUGCUCCGUUGAAUGGAGUUUAUCAUG [G88U A91G] | ≤ -4.2
GGAUCUUCUCGAUCUAACAAAAAAGACAAAUCUGCCACAAAGCUUGAGAGCAUCUUCGGAUGCAGAGGCGGCAGCCUUCGGUGGCGCUAUAGCGCCAACGUUCUCAACUAUGACACGCAAAACGCGUGCUCCGUUGAAUGUAGUUUAUCAUG [G88U G141U] | -3.23
GGAUCUUCUCGAUCUAACAAAAAAGACAAAUCUGCCACAAAGCUUGAGAGCAUCUUCGGAUGCAGAGGCGGCAGCCUUCGGUGGCGCCAUAGGGCCAACGUCCUCAACUAUGACACGCAAAACACGUGCUCCGUUGAAUGGAGUUUAUCAUG [G88C C93G U102C G124A] | ≤ -4.2
GGAUCUUCUCGAUCUAACAAAAAAGACAAAUCUGCCACAAAGCUUGAGAGCAUCUUCGGAUGCAGAGGCGGCAGCCUUCGGUGGCGCCAUAGCGCCAACGUUCUGAACUAUGACACGCAAAACGCGUCCUCCGUUGAAUGGCGUUUAUCAUG [G88C C105G G128C A142C] | ≤ -4.2
GGAUCUUCUCGAUCUAACAAAAAAGACAAAUCUGCCACAAAGCUUGAGAGCAUCUUCGGAUGCAGAGGCGGCAGCCUUCGGUGGCGCCAUAGCGCCAACGUUCUCAACUAUGACACGCAAAACGCGUGCUCCGUUGAAUGGAGUUUCUCAUU [G88C A147C G152U] | ≤ -4.2
